Experimental data as given in patent US20220403031A1.

Experiments:
Factor VIII [1] = test: non-specific binding ELISA; antigen coated at 2 ug/mL, antibody at 10 ug/ml
[2] = biological target: PD-1.his (Homo sapiens (Human)) (UniProt Q15116); test: as above
CD40 [3] = test: as above
VEGF.his [4] = test: as above
OX40.his [5] = test: as above
FGFR.his [6] = test: as above
CTLA4.his [7] = test: as above
CD147.his [8] = test: as above
CD3.his [9] = test: as above
[10] = biological target: HER3.his (Homo sapiens (Human)) (UniProt P21860); test: as above
CD22.his [11] = test: as above
[12] = biological target: 4-1BB.his (Homo sapiens (Human)) (UniProt Q07011); test: as above
[13] = biological target: human serum Albumin (human) (UniProt P02768); test: as above
[14] = biological target: cynomolgus monkey PD-L1 on 293F cells (W315-293F.cynoPro1.2A2) (cynomolgus monkey) (UniProt G7PSE7); test: FACS affinity on cynomolgus PD-L1 cells, quantitative beads; design: Bmax: unit not given here
[15] = biological target: cynomolgus monkey PD-L1 on 293F cells (W315-293F.cynoPro1.2A2) (cynomolgus monkey) (UniProt G7PSE7); test: FACS on cynomolgus PD-L1 293F cells
Factor VIII [16] = test: non-specific binding ELISA; secondary antibody alone on coated antigen
[17] = biological target: PD-1.his (Homo sapiens (Human)) (UniProt Q15116); test: as above
CD40 [18] = test: as above
VEGF.his [19] = test: as above
OX40.his [20] = test: as above
FGFR.his [21] = test: as above
CTLA4.his [22] = test: as above
CD147.his [23] = test: as above
CD3.his [24] = test: as above
[25] = biological target: HER3.his (Homo sapiens (Human)) (UniProt P21860); test: as above
CD22.his [26] = test: as above
[27] = biological target: 4-1BB.his (Homo sapiens (Human)) (UniProt Q07011); test: as above
[28] = biological target: human serum Albumin (human) (UniProt P02768); test: as above
[29] = biological target: mouse PD-L1 on 293F cells (W315-293F.mPro1.C1) (mouse) (UniProt Q9EP73); test: FACS on mouse PD-L1 293F cells
[30] = biological target: human PD-L1 on CHO-K1 cells (W315-CHO-K1.hPro1.C11) (human) (UniProt Q9NZQ7); test: FACS affinity on human PD-L1 cells, quantitative beads
[31] = biological target: mouse PD-L1 on 293F cells (W315-293F.mPro1.C1) (mouse) (UniProt Q9EP73); test: FACS competition: antibody titrated against 5 ug/mL mouse PD-1 ECD mFc on mouse PD-L1 293F cells
[32] = biological target: mouse PD-L1 on 293F cells (W315-293F.mPro1.C1) (mouse) (UniProt Q9EP73); test: FACS affinity on mouse PD-L1 cells, quantitative beads
[33] = biological target: human PD-L1 on CHO-K1 cells (W315-CHO-K1.hPro1.C11) (human) (UniProt Q9NZQ7); test: FACS competition: antibody titrated against 5 ug/mL human PD-1 ECD mFc on human PD-L1 CHO-K1 cells
[34] = biological target: human PD-L1 on CHO-K1 cells (W315-CHO-K1.hPro1.C11) (human) (UniProt Q9NZQ7); test: FACS on human PD-L1 CHO-K1 cells

CTLA4.his, sequence (P16410 36-161): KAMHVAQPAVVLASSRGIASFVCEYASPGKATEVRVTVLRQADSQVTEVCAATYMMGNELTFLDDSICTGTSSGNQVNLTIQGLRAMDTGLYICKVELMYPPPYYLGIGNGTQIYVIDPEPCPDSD
mouse PD-L1 on 293F cells (W315-293F.mPro1.C1) (mouse), sequence (Q9EP73 19-290): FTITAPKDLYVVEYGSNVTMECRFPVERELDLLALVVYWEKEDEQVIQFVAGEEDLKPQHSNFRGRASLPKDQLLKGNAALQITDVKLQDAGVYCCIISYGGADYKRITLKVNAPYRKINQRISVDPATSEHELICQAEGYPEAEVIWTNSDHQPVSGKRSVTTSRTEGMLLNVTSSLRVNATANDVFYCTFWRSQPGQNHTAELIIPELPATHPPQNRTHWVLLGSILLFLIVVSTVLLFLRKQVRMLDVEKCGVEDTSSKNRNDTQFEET
cynomolgus monkey PD-L1 on 293F cells (W315-293F.cynoPro1.2A2) (cynomolgus monkey), sequence (G7PSE7 entry or part of it): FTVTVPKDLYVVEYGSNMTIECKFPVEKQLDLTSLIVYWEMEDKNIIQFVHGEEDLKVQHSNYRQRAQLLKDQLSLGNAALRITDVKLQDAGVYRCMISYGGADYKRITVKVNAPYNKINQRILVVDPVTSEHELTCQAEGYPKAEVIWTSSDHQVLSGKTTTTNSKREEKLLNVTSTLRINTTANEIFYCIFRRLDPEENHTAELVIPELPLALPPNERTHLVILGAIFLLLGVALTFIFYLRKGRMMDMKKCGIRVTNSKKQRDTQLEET
CD40, sequence (P25942 21-193): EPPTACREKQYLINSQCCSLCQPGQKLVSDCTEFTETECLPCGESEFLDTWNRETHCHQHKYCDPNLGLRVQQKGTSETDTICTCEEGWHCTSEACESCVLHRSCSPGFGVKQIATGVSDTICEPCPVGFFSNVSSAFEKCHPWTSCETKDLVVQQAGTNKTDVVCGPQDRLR
human PD-L1 on CHO-K1 cells (W315-CHO-K1.hPro1.C11) (human), sequence (Q9NZQ7 19-290): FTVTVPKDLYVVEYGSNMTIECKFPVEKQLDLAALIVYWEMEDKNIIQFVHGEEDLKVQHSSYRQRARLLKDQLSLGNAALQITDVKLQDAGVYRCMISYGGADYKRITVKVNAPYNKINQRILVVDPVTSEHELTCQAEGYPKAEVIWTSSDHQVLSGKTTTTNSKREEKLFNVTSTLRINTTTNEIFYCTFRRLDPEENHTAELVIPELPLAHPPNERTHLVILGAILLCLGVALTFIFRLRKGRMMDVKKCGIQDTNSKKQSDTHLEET
OX40.his, sequence (P43489 29-214): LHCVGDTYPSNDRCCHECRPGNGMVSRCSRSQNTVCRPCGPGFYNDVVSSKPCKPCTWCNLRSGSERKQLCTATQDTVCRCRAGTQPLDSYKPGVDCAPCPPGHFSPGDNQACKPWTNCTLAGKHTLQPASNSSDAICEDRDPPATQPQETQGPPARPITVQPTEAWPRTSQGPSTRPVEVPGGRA
4-1BB.his (Homo sapiens (Human)), sequence (Q07011 24-186 limits assumed): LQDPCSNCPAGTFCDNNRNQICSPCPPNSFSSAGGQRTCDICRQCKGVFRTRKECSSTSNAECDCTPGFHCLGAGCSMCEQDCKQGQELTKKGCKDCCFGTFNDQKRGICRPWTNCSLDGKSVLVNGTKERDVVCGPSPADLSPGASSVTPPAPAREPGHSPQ
PD-1.his (Homo sapiens (Human)), sequence (Q15116 25-170 limits assumed): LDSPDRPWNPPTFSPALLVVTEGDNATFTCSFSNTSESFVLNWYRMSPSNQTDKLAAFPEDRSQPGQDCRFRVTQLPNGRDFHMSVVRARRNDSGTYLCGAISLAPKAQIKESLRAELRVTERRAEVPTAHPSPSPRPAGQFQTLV

Substance: hIgG4L Isotype control (antibody)
- Absorbance at 450 nm (Factor VIII [1]): 0.07
- Absorbance at 450 nm [2]: 0.05
- Absorbance at 450 nm (CD40 [3]): 0.24
- Absorbance at 450 nm (VEGF.his [4]): 0.08
- Absorbance at 450 nm (OX40.his [5]): 0.06
- Absorbance at 450 nm (FGFR.his [6]): 0.13
- Absorbance at 450 nm (CTLA4.his [7]): 0.06
- Absorbance at 450 nm (CD147.his [8]): 0.06
- Absorbance at 450 nm (CD3.his [9]): 0.07
- Absorbance at 450 nm [10]: 0.06
- Absorbance at 450 nm (CD22.his [11]): 0.06
- Absorbance at 450 nm [12]: 0.06
- Absorbance at 450 nm [13]: 0.41

Substance: BMK6.hIgG4 (Benchmark antibody 6, variable region of Imfinzi conjugated with human IgG4 constant region)
- Bmax [14]: 1.6e-08
- Kd [14]: 21 nM
- EC50 [15]: 2.65 nM

Substance: hIgG4K Isotype control (antibody)
- Absorbance at 450 nm (Factor VIII [1]): 0.15
- Absorbance at 450 nm [2]: 3.29
- Absorbance at 450 nm (CD40 [3]): 0.25
- Absorbance at 450 nm (VEGF.his [4]): 0.11
- Absorbance at 450 nm (OX40.his [5]): 0.06
- Absorbance at 450 nm (FGFR.his [6]): 0.13
- Absorbance at 450 nm (CTLA4.his [7]): 0.09
- Absorbance at 450 nm (CD147.his [8]): 0.06
- Absorbance at 450 nm (CD3.his [9]): 0.07
- Absorbance at 450 nm [10]: 0.07
- Absorbance at 450 nm (CD22.his [11]): 0.06
- Absorbance at 450 nm [12]: 0.07
- Absorbance at 450 nm [13]: 0.41

Substance: Goat anti-human IgG Fc-HRP (Bethyl, A80-304P) (antibody)
- Absorbance at 450 nm (Factor VIII [16]): 0.06
- Absorbance at 450 nm [17]: 0.05
- Absorbance at 450 nm (CD40 [18]): 0.24
- Absorbance at 450 nm (VEGF.his [19]): 0.06
- Absorbance at 450 nm (OX40.his [20]): 0.05
- Absorbance at 450 nm (FGFR.his [21]): 0.13
- Absorbance at 450 nm (CTLA4.his [22]): 0.05
- Absorbance at 450 nm (CD147.his [23]): 0.05
- Absorbance at 450 nm (CD3.his [24]): 0.05
- Absorbance at 450 nm [25]: 0.05
- Absorbance at 450 nm (CD22.his [26]): 0.05
- Absorbance at 450 nm [27]: 0.05
- Absorbance at 450 nm [28]: 0.37

Substance: BMK8.hIgG4 (Benchmark antibody 8, variable region of Tecentriq conjugated with human IgG4 constant region)
- EC50 [29]: 1.48 nM
- Bmax [30]: 3.3e-10
- Kd [30]: 0.53 nM
- Bmax [14]: 8.8e-09
- Kd [14]: 16 nM
- EC50 [15]: 2.19 nM
- IC50 [31]: 1.45 nM
- Bmax [32]: 8.3e-10
- Kd [32]: 1.7 nM

Substance: BMK9.Fc(IgG1) (Benchmark antibody 9, same sequence with KN035) (Fc fusion)
- IC50 [33]: 0.798 nM
- EC50 [34]: 0.456 nM
- EC50 [15]: 2.33 nM
